Test results: patent US8734776B2 (ZymoGenetics, Inc., priority 2003, dated 2014)

T1: zcyto24 (Mus musculus, UniProt Q4VK74)
T1 sequence (Q4VK74 20-193): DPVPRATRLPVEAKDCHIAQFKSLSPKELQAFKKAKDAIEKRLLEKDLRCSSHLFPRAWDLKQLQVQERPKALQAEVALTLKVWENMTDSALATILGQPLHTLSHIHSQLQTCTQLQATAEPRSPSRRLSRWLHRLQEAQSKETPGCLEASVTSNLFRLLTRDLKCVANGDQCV

T2: zcyto20 (Homo sapiens, UniProt Q8IZJ0)
T2 sequence (Q8IZJ0 26-200): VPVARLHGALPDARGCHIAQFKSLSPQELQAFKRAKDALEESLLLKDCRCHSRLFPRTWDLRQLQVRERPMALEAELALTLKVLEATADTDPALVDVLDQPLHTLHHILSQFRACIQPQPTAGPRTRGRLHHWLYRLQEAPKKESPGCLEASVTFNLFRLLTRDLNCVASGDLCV

B1: Huzcytor19-Fc: human zcytor19-Fc homodimer soluble receptor (protein)
chain: RPRLAPPQNVTLLSQNFSVYLTWLPGLGNPQDVTYFVAYQSSPTRRRWREVEECAGTKELLCSMMCLKKQDLYNKFKGRVRTVSPSSKSPWVESEYLDYLFEVEPAPPVLVLTQTEEILSANATYQLPPCMPPLDLKYEVAFWKEGAGNKTLFPVTPHGQPVQITLQPAASEHHCLSARTIYTFSVPKYSKFSKPTCFLLEVPEANWA
modifications: left off: a dimerising Fc or GST
notes: human zcytor19-Fc homodimer soluble receptor
B2: IL-28B: human IL-28B, previously designated zcyto22, SEQ ID NO:6 (protein, listed as Homo sapiens)
chain: MKLDMTGDCMPVLVLMAAVLTVTGAVPVARLRGALPDARGCHIAQFKSLSPQELQAFKRAKDALEESLLLKDCKCRSRLFPRTWDLRQLQVRERPVALEAELALTLKVLEATADTDPALGDVLDQPLHTLHHILSQLRACIQPQPTAGPRTRGRLHHWLHRLQEAPKKESPGCLEASVTFNLFRLLTRDLNCVASGDLCV
modifications: SIGNAL (1)...(25)
B3: zcyto25: mouse IL-28, SEQ ID NO:10 (protein, listed as Mus musculus)
chain: MKPETAGGHMLLLLLPLLLAAVLTRTQADPVPRATRLPVEAKDCHIAQFKSLSPKELQAFKKAKGAIEKRLLEKDMRCSSHLISRAWDLKQLQVQERPKALQAEVALTLKVWENINDSALTTILGQPLHTLSHIHSQLQTCTQLQATAEPKPPSRRLSRWLHRLQEAQSKETPGCLEDSVTSNLFQLLLRDLKCVASGDQCV
modifications: SIGNAL (1)...(28)
B4: Muzcytor19-Ig: murine zcytor19-Ig homodimer soluble receptor (protein)
chain: RPRLAPPRNVTLFSQNFTVYLTWLPGLGSPPNVTYFVTYQSYIKTGWRPVEHCAGIKALVCPLMCLKKLNLYSKFKGRVQAASAHGRSPRVESRYLEYLFDVELAPPTLVLTQMEKILRVNATYQLPPCMPSLELKYQVEFWKEGLGSKTLFPDTPYGQPVQIPLQQGASRRHCLSARTVYTLIDIKYSQFSEPSCIFLEAPGDKRA
modifications: left off: a dimerising Fc or GST
notes: murine zcytor19-Ig homodimer soluble receptor

Legend:
[1] = target: zcyto21 (Homo sapiens, UniProt Q8IU54); assay: Inhibition of ligand-induced ISRE signaling by soluble receptors, zcyto21; type: cell-based; details: ligand Zcyto21 10 ng/ml; soluble receptor 10 micrograms/ml
Excerpt: (§1) A signal transduction reporter assay can be used to show the inhibitor properties of zcytor19-Fc4 homodimeric and zcytor19-Fc/CRF2-4-Fc heterodimeric soluble receptors on zcyto20, zcyto21 and zcyto24 signaling Human embryonal kidney (HEK) cells overexpressing the zcytor19 receptor are transfected with a reporter plasmid containing an interferon-stimulated response element (ISRE) driving transcription of a luciferase reporter gene. Luciferase activity following stimulation of transfected cells with ligands (including zcyto20 (SEQ ID NO:2), zcyto21 (SEQ ID NO:4), zcyto24 (SEQ ID NO: 8)) reflects the interaction of the ligand with soluble receptor.
(§2) 293 HEK cells overexpressing zcytor19 were transfected as follows: 700,000 293 cells/well (6 well plates) were plated approximately 18 h prior to transfection in 2 milliliters DMEM+10% fetal bovine serum. Per well, 1 microgram pISRE-Luciferase DNA (Stratagene) and 1 microgram pIRES2-EGFP DNA (Clontech,) were added to 6 microliters Fugene 6 reagent (Roche Biochemicals) in a total of 100 microliters DMEM. This transfection mix was added 30 minutes later to the pre-plated 293 cells. Twenty-four hours later the transfected cells were removed from the plate using trypsin-EDTA and replated at approximately 25,000 cells/well in 96 well microliter plates. Approximately 18 h prior to ligand stimulation, media was changed to DMEM+0.5% FBS.
(§3) The signal transduction reporter assays were done as follows: Following an 18 h incubation at 37° C. in DMEM+0.5% FBS, transfected cells were stimulated with 10 ng/ml zcyto20, zcyto21 or zcyto24 and 10 micrograms/ml of the following soluble receptors; human zcytor19-Fc homodimer, human zcytor19-Fc/human CRF2-4-Fc heterodimer, human CRF2-4-Fc homodimer, murine zcytor19-Ig homodimer. Following a 4-hour incubation at 37° C., the cells were lysed, and the relative light units (RLU) were measured on a luminometer after addition of a luciferase substrate. The results obtained are shown as the percent inhibition of ligand-induced signaling in the presence of soluble receptor relative to the signaling in the presence of PBS alone.

[2] = target: T1, zcyto24; assay: Inhibition of ligand-induced ISRE signaling by soluble receptors, zcyto24; type: cell-based; details: ligand Zcyto24 10 ng/ml; soluble receptor 10 micrograms/ml
Excerpt: as §1, §2, §3

[3] = target: T2, zcyto20; assay: Inhibition of ligand-induced ISRE signaling by soluble receptors, zcyto20; type: cell-based; details: soluble receptor 10 micrograms/ml; for Percent Inhibition of Ligand-induced ISRE Signaling by Soluble Receptors: ligand Zcyto20 10 ng/ml; for effect on ligand-induced signaling: zcyto20, zcyto21 or zcyto24 10 ng/ml
Excerpt: as §1, §2, §3

[4] = test system: encephelomyocarditis virus; assay: Antiviral assay: cytopathic effect in L929 cells; type: cell-based, mouse
[5] = test system: encephelomyocarditis virus; assay: Antiviral assay: cytopathic effect in HeLa cells; type: cell-based, human
[6] = relative CM concentration .008X
[7] = relative CM concentration .0156X
[8] = relative CM concentration .0325X
[9] = relative CM concentration .0625X
[10] = relative CM concentration .125X

zcyto21, sequence (Q8IU54 20-200): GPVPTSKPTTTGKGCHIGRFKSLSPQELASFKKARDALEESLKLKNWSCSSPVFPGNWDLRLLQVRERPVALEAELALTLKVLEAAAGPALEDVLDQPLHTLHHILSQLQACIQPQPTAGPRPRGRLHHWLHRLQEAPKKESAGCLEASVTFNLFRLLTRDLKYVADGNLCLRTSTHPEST

Row | Molecule | Percent Inhibition of Ligand-induced ISRE Signaling by Soluble Receptors [1] | Percent Inhibition of Ligand-induced ISRE Signaling by Soluble Receptors [2] | Percent Inhibition of Ligand-induced ISRE Signaling by Soluble Receptors [3] | effect on ligand-induced signaling [3] | Percentage Cytopathic Effect ([4]; relative CM conc. .008X) | Percentage Cytopathic Effect ([4]; relative CM conc. .0156X) | Percentage Cytopathic Effect ([4]; relative CM conc. .0325X) | Percentage Cytopathic Effect ([4]; relative CM conc. .0625X) | Percentage Cytopathic Effect ([4]; relative CM conc. .125X) | Percentage Cytopathic Effect ([4]; relative CM conc. .25X) | Percentage Cytopathic Effect ([4]; relative CM conc. .5X) | Percentage Cytopathic Effect [5, 6] | Percentage Cytopathic Effect [5, 7] | Percentage Cytopathic Effect [5, 8] | Percentage Cytopathic Effect [5, 9] | Percentage Cytopathic Effect [5, 10] | Percentage Cytopathic Effect ([5]; relative CM concentration .25X) | Percentage Cytopathic Effect ([5]; relative CM concentration .5X)
1 | Huzcytor19-Fc/huCRF2-4-Fc: human zcytor19-Fc/human CRF2-4-Fc heterodimer soluble receptor | 16% | 47% | 16% |  |  |  |  |  |  |  |  |  |  |  |  |  |  | 
2 | HuCRF2-4-Fc: human CRF2-4-Fc homodimer soluble receptor | 79% | 82% | 80% | No significant effects |  |  |  |  |  |  |  |  |  |  |  |  |  | 
3 | B1 | 45% | 90% | 92% |  |  |  |  |  |  |  |  |  |  |  |  |  |  | 
4 | B2 |  |  |  |  | 87% | 87% | 87% | 87% | 87% | 87% | 87% | 0% | 0% | 0% | 0% | 0% | 0% | 0%
5 | B3 |  |  |  |  | 87% | 87% | 87% | 87% | 87% | 87% | 87% | 10% | 5% | 5% | 0% | 0% | 0% | 0%
6 | B4 | 103% | 89% | 91% | No significant effects |  |  |  |  |  |  |  |  |  |  |  |  |  | 
